Measured values reported in patent US20220204611A1 (Amgen, published 2022).
Numbering of substitutions follows the chain as printed. Blank lines part the entries; values can stand above or below the binder they belong to.

How the values were obtained:
[1] = target: T1, recombinant soluble human TREM2 protein (human TREM2 ECD-FlagHis) (human, UniProt Q9NZC2 19-174); test: Octet BLI binning; competitor: load Ab 24G6
T1 sequence: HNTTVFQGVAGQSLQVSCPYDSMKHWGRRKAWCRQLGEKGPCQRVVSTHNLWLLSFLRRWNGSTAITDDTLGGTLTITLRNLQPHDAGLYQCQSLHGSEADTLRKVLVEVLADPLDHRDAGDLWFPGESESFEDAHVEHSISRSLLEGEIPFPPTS
Method: (§1) Each of sixteen different anti-TREM2 antibodies produced from hybridomas were quantitated and loaded onto one of the anti-human Fc sensors at 5 μg/mL for 2 minutes (“Load Antibody”). The sensor was then blocked with 100 μg/mL of an irrelevant human IgG2 antibody for 5 minutes. […] Next, each of the sixteen different anti-TREM2 antibodies (“Sandwich Antibody”) was added to the sensor at 5 μg/mL and allowed to bind for 5 minutes. All assay buffers contained 10 mM Tris (pH 7.6), 0.1% Triton X-100, 150 mM NaCl, 1 mM CaCl₂, and 1 mg/mL BSA. The assay was conducted at 25° C. Experimental kinetic results were fit to a 1:1 binding model.
(§2) However, if addition of the sandwich antibody produces a binding event, then the sandwich antibody binds to a different epitope on human TREM2 than the load antibody and the two antibodies are categorized into different epitope bins.

[2] = target: T1, recombinant soluble human TREM2 protein …; test: Octet BLI binning; competitor: load Ab 13E7
Method: as §1, §2

[3] = target: T1, recombinant soluble human TREM2 protein …; test: Octet BLI binning; competitor: load Ab 26A10
Method: as §1, §2

[4] = target: T1, recombinant soluble human TREM2 protein …; test: Octet BLI binning; competitor: load Ab 16B8
Method: as §1, §2

[5] = target: T1, recombinant soluble human TREM2 protein …; test: Octet BLI binning; competitor: load Ab 5E3
Method: as §1, §2

[6] = target: T1, recombinant soluble human TREM2 protein …; test: Octet BLI binning; competitor: load Ab 32E3
Method: as §1, §2

[7] = target: T1, recombinant soluble human TREM2 protein …; test: Octet BLI binning; competitor: load Ab 10E3
Method: as §1, §2

[8] = target: T1, recombinant soluble human TREM2 protein …; test: Octet BLI binning; competitor: load Ab 24A10
Method: as §1, §2

[9] = target: T2, soluble human TREM2 protein (TREM2 ECD-huIgG1 Fc fusion protein) (human, UniProt Q9NZC2 19-174, biotinylated); test: ELISA, hybridoma supernatant on captured biotinylated TREM2 ECD-Fc
T2 construct: also called biotinylated soluble human TREM2 protein
T2 sequence: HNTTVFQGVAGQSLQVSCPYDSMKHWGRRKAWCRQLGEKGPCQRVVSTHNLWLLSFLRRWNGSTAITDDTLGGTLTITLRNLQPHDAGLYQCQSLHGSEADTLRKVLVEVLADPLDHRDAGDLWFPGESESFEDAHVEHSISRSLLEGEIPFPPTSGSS
Method: Exhausted hybridoma supernatants were tested for binding to human TREM2 by ELISA. Briefly, neutravidin plates were generated by incubating a 384 well Corning Assay Plate 3702 with neutravidin (Thermo 3100B) at 10 μg/mL (40 μL/well) in 1× PBS at 4° C. overnight. The plates were washed with 1× PBS using a Biotek plate washer and then blocked with 1% milk/1× PBS (90 μL/well) at room temperature (RT) for 30 minutes. The plates were then washed again with 1× PBS using the plate washer. […] The plates were then incubated at RT for 1 hour to immobilize the TREM2 protein to the wells of the plates. Following the incubation, the plates were again washed with 1× PBS using the plate washer. 10 μL of each hybridoma supernatant to be tested and 40 μL of 1% milk/1× PBS (1:5 dilution) were added to each well of the plates and incubated at RT for 1 hour. Again, the plates were washed with 1× PBS using the plate washer. […] After the plates were washed with 1× PBS using the plate washer, 40 μL/well of TMB substrate (Neogen, lot #150114) was added to the plates and the plates were incubated at RT for 30 minutes. The reaction was quenched with 1N hydrochloric acid (40 uL/well) following the incubation period. OD readings at 450 nm were obtained with a plate reader.

human TREM2 on cells [10] = target: T3, human TREM2 on cells (human, UniProt Q9NZC2 19-230); test: cell-based or functional assay
T3 sequence: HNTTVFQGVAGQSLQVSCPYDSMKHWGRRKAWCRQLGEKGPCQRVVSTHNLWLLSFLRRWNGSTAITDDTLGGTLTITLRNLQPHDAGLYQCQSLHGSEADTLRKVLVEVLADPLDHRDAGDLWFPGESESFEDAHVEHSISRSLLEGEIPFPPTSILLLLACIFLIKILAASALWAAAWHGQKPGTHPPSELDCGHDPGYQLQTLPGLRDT

[11] = target: T1, recombinant soluble human TREM2 protein …; test: Octet BLI binning; competitor: load Ab 6E7
Method: as §1, §2

[12] = target: T1, recombinant soluble human TREM2 protein …; test: Octet BLI binning; competitor: load Ab 33B12
Method: as §1, §2

[13] = target: T1, recombinant soluble human TREM2 protein …; test: Octet BLI binning; competitor: load Ab 26F2
Method: as §1, §2

[14] = target: T1, recombinant soluble human TREM2 protein …; test: Octet BLI binning; competitor: load Ab 24F4
Method: as §1, §2

[15] = target: T1, recombinant soluble human TREM2 protein …; test: Octet BLI binning; competitor: load Ab 26C10
Method: as §1, §2

[16] = target: T1, recombinant soluble human TREM2 protein …; test: Octet BLI binning; competitor: load Ab 25F12
Method: as §1, §2

human TREM2 on cells [17] = target: T3, human TREM2 on cells; test: cell-based or functional assay; remark: listed apart in the source

sandwich binding signal [1]: 0.354 | sandwich binding signal [2]: 0.272 | sandwich binding signal [3]: -0.001 | sandwich binding signal [4]: -0.018 | sandwich binding signal [5]: -0.027 | sandwich binding signal [6]: 0.362 | sandwich binding signal [7]: 0.259 | sandwich binding signal [8]: 0.454 | OD 450 [9]: 1.16 OD450 | pSyk EC50 (human TREM2 on cells [10]): 1.3 nM | sandwich binding signal [11]: 0.491 | sandwich binding signal [12]: -0.02 | sandwich binding signal [13]: -0.016 | sandwich binding signal [14]: 0.449 | sandwich binding signal [15]: -0.033 | sandwich binding signal [16]: 0.343
B3: 26A10 (antibody, V domains shown)
VH: EVQLVESGGALVQRGGSLRLSCAASRFTFSSFGMSWVRQAPGKGLEWVSYISSSSFTIYYADSVKGRFTISRDNAKNSFYLQMNSLRDEDTAVYYCAREGGLTMVRGVSSYGLDVWGQGTTVTVSS
VL: not shown
notes: human IgG2 from hybridoma

sandwich binding signal [1]: 0.384 | sandwich binding signal [2]: 0.323 | sandwich binding signal [4]: -0.031 | sandwich binding signal [5]: -0.042 | sandwich binding signal [6]: 0.419 | sandwich binding signal [7]: 0.285 | sandwich binding signal [8]: 0.541 | OD 450 [9]: 1.59 OD450 | pSyk EC50 (human TREM2 on cells [10]): 2.2 nM | sandwich binding signal [11]: 0.594 | sandwich binding signal [12]: -0.033 | sandwich binding signal [13]: -0.015 | sandwich binding signal [14]: 0.552 | sandwich binding signal [15]: -0.032 | sandwich binding signal [16]: 0.418
B4: 26C10 (antibody, human IgG2, V domains shown)
VH: B3 VH with R14P, R26G, Y95F, A97V, L102I, L113M
VL: SFELTQPPSVSVSPGQTASITCSGDKLGDKYVCWYQQKPGQSPMLVIYQDTKRPSGIPERFSGSNSGNTATLTISGTQAMDEADYYCQAWDSSTVVFGGGTKLTVL
notes: human IgG2 from hybridoma

sandwich binding signal [1]: 0.251 | sandwich binding signal [2]: -0.015 | sandwich binding signal [3]: 0.319 | sandwich binding signal [4]: 0.27 | sandwich binding signal [5]: 0.311 | sandwich binding signal [6]: -0.001 | sandwich binding signal [7]: -0.032 | sandwich binding signal [8]: 0.335 | pSyk EC50 (human TREM2 on cells [10]): 2.4 nM | sandwich binding signal [11]: -0.039 | sandwich binding signal [12]: 0.25 | sandwich binding signal [13]: 0.282 | sandwich binding signal [14]: 0.038 | sandwich binding signal [15]: 0.346 | sandwich binding signal [16]: 0.244
B6: 24F4 (antibody, human IgG2, V domains shown)
VH: EVQLVQSGAEVKKPGESLKISCKGSGYTFTSYWIGWVRQMPGKGLEWMGIIYPGDSDTRYSPSFQGQVTISVDKSSSTAYLQWSSLKASDTAIYYCTRQAIAVTGLGGFDPWGQGTLVTVSS
VL: EIVLTQSPGTLSLSPGERATLSCRASQSVSSSYLAWYQQKPGQAPRLLIYGASSRATGIPDRFSGSGSGTDFTLTISRLEPEDFALYYCQQYDTSPFTFGPGTKVDIK
notes: human IgG2 from hybridoma

Continued, binder first:

B1: 24A10 (antibody, human IgG2, V domains shown)
VH: EVQVLESGGGLVQPGGSLRLSCAASGFTFSNYAMSWVRQAPGKGLEWVSAISGSGGSTYYADSVKGRFTISRDNSKNTLYLQMNSLRAEDTAVYYCAKGGWELFYWGQGTLVTVSS
VL: not shown
notes: human IgG2 from hybridoma
sandwich binding signal [1]: -0.031 | sandwich binding signal [2]: 0.375 | sandwich binding signal [3]: 0.596 | sandwich binding signal [4]: 0.481 | sandwich binding signal [5]: 0.53 | sandwich binding signal [6]: 0.461 | sandwich binding signal [7]: 0.347 | sandwich binding signal [8]: 0.023 | OD 450 [9]: 2.75 OD450 | pSyk EC50 (human TREM2 on cells [10]): 32.9 nM | sandwich binding signal [11]: 0.616 | sandwich binding signal [12]: 0.439 | sandwich binding signal [13]: 0.544 | sandwich binding signal [14]: 0.585 | sandwich binding signal [15]: 0.605 | sandwich binding signal [16]: 0.509

B2: 33B12 (antibody, V domains shown)
VH: B3 VH with R14P, R26G, S53K
VL: not shown
notes: human IgG2 from hybridoma
sandwich binding signal [1]: 0.388 | sandwich binding signal [2]: 0.287 | sandwich binding signal [3]: 0.023 | sandwich binding signal [4]: -0.017 | sandwich binding signal [5]: -0.015 | sandwich binding signal [6]: 0.384 | sandwich binding signal [7]: 0.271 | sandwich binding signal [8]: 0.47 | OD 450 [9]: 1.34 OD450 | pSyk EC50 (human TREM2 on cells [10]): 1 nM | sandwich binding signal [11]: 0.52 | Emax (% maximum activation compared to RnD antibody) (human TREM2 on cells [17]): 246% | pSyk EC50, differentiated THP-1 cells (human TREM2 on cells [17]): 2.85 nM | sandwich binding signal [13]: 0.002 | sandwich binding signal [14]: 0.454 | sandwich binding signal [15]: -0.009 | sandwich binding signal [16]: 0.345

B5: 16B8 (antibody, human IgG4, V domains shown)
VH: QVQLVQSGAEVKKPGASVKVSCKASGYTFTNYGISWVRQAPGQGLEWMGWISAYNGNTNYAQKLQGRVTMTTDTSTSTVYMELRSLRSDDTAVYYCARRGYSYGSFDYWGQGTLVTVSS
VL: DIQMTQSPSSVSASVGDRVTVTCRASQDINSWLAWYQQKPGKAPKLLIYAASSLQTGVPSRFSGSGSGTDFTLTISSLQPEDFATYSCQQSNSFPITFGQGTRLEIK
notes: human IgG4 (G4) from hybridoma
sandwich binding signal [1]: 0.369 | sandwich binding signal [2]: 0.312 | sandwich binding signal [3]: 0.028 | sandwich binding signal [4]: -0.009 | sandwich binding signal [5]: -0.004 | sandwich binding signal [6]: 0.4 | sandwich binding signal [7]: 0.28 | sandwich binding signal [8]: 0.423 | OD 450 [9]: 0.59 OD450 | sandwich binding signal [11]: 0.504 | Emax (% maximum activation compared to RnD antibody) (human TREM2 on cells [17]): 140% | pSyk EC50, differentiated THP-1 cells (human TREM2 on cells [17]): 0.418 nM | sandwich binding signal [12]: 0.007 | sandwich binding signal [13]: 0.031 | sandwich binding signal [14]: 0.454 | sandwich binding signal [15]: 0.006 | sandwich binding signal [16]: 0.399
